The source of these data is patent US20210154269A1.

The target in assay [1] is human CD47 (human) (UniProt Q08722). Briefly: cell-based or functional assay.
Assay [2] shares this target. Briefly: affinity for human CD47; method not stated.
Assay [3] has the same target. Kind of assay: in vitro receptor occupancy assay, at ~1 µM.

In the assay with human CD47 (human) [1], “TTI-621 (from UniProt P78324 31-149) (Fc fusion)” came in with an EC50, PathHunter SIRPα Signaling Bioassay of over 0.15 µg/mL and an inhibition of SIRPα signaling at 1 nM of under 10%. Further, in the assay with human CD47 (human) [2], the Kd amounted to 500 nM. The substance further returned a receptor occupancy with human CD47 (human) [3] of 40%.

Consider “TTI-622 (from UniProt P78324 31-149) (Fc fusion)”, for which, in the assay with human CD47 (human) [1], the EC50, PathHunter SIRPα Signaling Bioassay is over 0.15 µg/mL and the inhibition of SIRPα signaling at 1 nM was under 10%. Besides, the dissociation constant Kd in the assay with human CD47 (human) [2] stood at 500 nM. Further, the receptor occupancy with human CD47 (human) [3] is 40%.
